In the supplement of paper PMC12338614:
± gives the uncertainty stated by the source.

B1: library; numbered along this chain (parent)
chain: MEVVDPQQLGMFTEGELMSVGMDTFIHRIDSTEVIYQPRRKRAKLIGKYLMGDLLGEGSYGKVKEVLDSETLCRRAVKILKKKKLRRIPNGEANVKKEIQLLRRLRHKNVIQLVDVLYNEEKQKMYMVMEYCVCGMQEMLDSVPEKRFPVCQAHGYFCQLIDGLEYLHSQGIVHKDIKPGNLLLTTGGTLKISDLGVAEALHPFAADDTCRTSQGSPAFQPPEIANGLDTFSGFKVDIWSAGVTLYNITTGLYPFEGDNIYKLFENIGKGSYAIPGDCGPPLSDLLKGMLEYEPAKRFSIRQIRQHSWFRKKHPPAEAPVPIPPSPDTKDRWRSMTVVPYLEDLHGADEDEDLFDIEDDIIYTQDFTVPGQVPEEEASHNGQRRGLPKAVCMNGTEAAQLSTKSRAEGRAPNPARKACSASSKIRRLSACKQQ

Variants of: B1
Assay: STK11 functional score (HeLa growth suppression), rescaled enrichment; synonymous median = 1, nonsense median = 0 (normalised score)
Details: with HeLa; variant type: missense
In short: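 In HeLa, Bxb1 integrated POPCode codon-randomised libraries of codon-optimised STK11 at an AAVS1 landing pad; three regions were each transfected three times. Integrants, marked as BFP-negative and mCherry-positive, were FACS-sorted 4–5 days after electroporation and expanded for about two weeks before tiled gDNA amplicons were sequenced on NextSeq (~2 million reads per tile). Each functional score is a post/pre-selection log ratio corrected to wild type, rescaled to the synonymous and nonsense medians, and merged across codons and replicate transfections, with error estimated by bootstrapping.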
In the case of MEVVDPQQLGMFTEGELMSVGMDTFIHRIDSTEVIYQPRRKRAKLIGKYLMGDLLGEGSYGKVKEVLDSETLCRRAVKILKKKKLRRIPNGEANVKKEIQLLRRLRHKNVIQLVDVLYNEEKQKMYMVMEYCVCGMQEMYDSVPEKRFPVCQAHGYFCQLIDGLEYLHSQGIVHKDIKPGNLLLTTGGTLKISDLGVAEALHPFAADDTCRTSQGSPAFQPPEIANGLDTFSGFKVDIWSAGVTLYNITTGLYPFEGDNIYKLFENIGKGSYAIPGDCGPPLSDLLKGMLEYEPAKRFSIRQIRQHSWFRKKHPPAEAPVPIPPSPDTKDRWRSMTVVPYLEDLHGADEDEDLFDIEDDIIYTQDFTVPGQVPEEEASHNGQRRGLPKAVCMNGTEAAQLSTKSRAEGRAPNPARKACSASSKIRRLSACKQQ [L140Y], the STK11 functional score is reported as -0.0286 ± 0.081.
Variant MEVVDPQQLGMFTEGELMSVGMDTFIHRIDSTEVIYQPRRKRAKLIGKYLMGDLLGEGSYGKVKEVLDSETLCRRAVKILKKKKLRRIPNGEANVKKEIQLLRRLRHKNVIQLVDVLYNEEKQKMYMVMEYCVCGMQEMTDSVPEKRFPVCQAHGYFCQLIDGLEYLHSQGIVHKDIKPGNLLLTTGGTLKISDLGVAEALHPFAADDTCRTSQGSPAFQPPEIANGLDTFSGFKVDIWSAGVTLYNITTGLYPFEGDNIYKLFENIGKGSYAIPGDCGPPLSDLLKGMLEYEPAKRFSIRQIRQHSWFRKKHPPAEAPVPIPPSPDTKDRWRSMTVVPYLEDLHGADEDEDLFDIEDDIIYTQDFTVPGQVPEEEASHNGQRRGLPKAVCMNGTEAAQLSTKSRAEGRAPNPARKACSASSKIRRLSACKQQ [L140T] has an STK11 functional score of 0.232 ± 0.25.
In the case of MEVVDPQQLGMFTEGELMSVGMDTFIHRIDSTEVIYQPRRKRAKLIGKYLMGDLLGEGSYGKVKEVLDSETLCRRAVKILKKKKLRRIPNGEANVKKEIQLLRRLRHKNVIQLVDVLYNEEKQKMYMVMEYCVCGMQEMWDSVPEKRFPVCQAHGYFCQLIDGLEYLHSQGIVHKDIKPGNLLLTTGGTLKISDLGVAEALHPFAADDTCRTSQGSPAFQPPEIANGLDTFSGFKVDIWSAGVTLYNITTGLYPFEGDNIYKLFENIGKGSYAIPGDCGPPLSDLLKGMLEYEPAKRFSIRQIRQHSWFRKKHPPAEAPVPIPPSPDTKDRWRSMTVVPYLEDLHGADEDEDLFDIEDDIIYTQDFTVPGQVPEEEASHNGQRRGLPKAVCMNGTEAAQLSTKSRAEGRAPNPARKACSASSKIRRLSACKQQ [L140W], the STK11 functional score is reported as -0.107 ± 0.081.
In the case of MEVVDPQQLGMFTEGELMSVGMDTFIHRIDSTEVIYQPRRKRAKLIGKYLMGDLLGEGSYGKVKEVLDSETLCRRAVKILKKKKLRRIPNGEANVKKEIQLLRRLRHKNVIQLVDVLYNEEKQKMYMVMEYCVCGMQEMVDSVPEKRFPVCQAHGYFCQLIDGLEYLHSQGIVHKDIKPGNLLLTTGGTLKISDLGVAEALHPFAADDTCRTSQGSPAFQPPEIANGLDTFSGFKVDIWSAGVTLYNITTGLYPFEGDNIYKLFENIGKGSYAIPGDCGPPLSDLLKGMLEYEPAKRFSIRQIRQHSWFRKKHPPAEAPVPIPPSPDTKDRWRSMTVVPYLEDLHGADEDEDLFDIEDDIIYTQDFTVPGQVPEEEASHNGQRRGLPKAVCMNGTEAAQLSTKSRAEGRAPNPARKACSASSKIRRLSACKQQ [L140V], the STK11 functional score is reported as 0.909 ± 0.079.
With MEVVDPQQLGMFTEGELMSVGMDTFIHRIDSTEVIYQPRRKRAKLIGKYLMGDLLGEGSYGKVKEVLDSETLCRRAVKILKKKKLRRIPNGEANVKKEIQLLRRLRHKNVIQLVDVLYNEEKQKMYMVMEYCVCGMQEMLESVPEKRFPVCQAHGYFCQLIDGLEYLHSQGIVHKDIKPGNLLLTTGGTLKISDLGVAEALHPFAADDTCRTSQGSPAFQPPEIANGLDTFSGFKVDIWSAGVTLYNITTGLYPFEGDNIYKLFENIGKGSYAIPGDCGPPLSDLLKGMLEYEPAKRFSIRQIRQHSWFRKKHPPAEAPVPIPPSPDTKDRWRSMTVVPYLEDLHGADEDEDLFDIEDDIIYTQDFTVPGQVPEEEASHNGQRRGLPKAVCMNGTEAAQLSTKSRAEGRAPNPARKACSASSKIRRLSACKQQ [D141E] the STK11 functional score was 0.883 ± 0.17.
Variant MEVVDPQQLGMFTEGELMSVGMDTFIHRIDSTEVIYQPRRKRAKLIGKYLMGDLLGEGSYGKVKEVLDSETLCRRAVKILKKKKLRRIPNGEANVKKEIQLLRRLRHKNVIQLVDVLYNEEKQKMYMVMEYCVCGMQEMLMSVPEKRFPVCQAHGYFCQLIDGLEYLHSQGIVHKDIKPGNLLLTTGGTLKISDLGVAEALHPFAADDTCRTSQGSPAFQPPEIANGLDTFSGFKVDIWSAGVTLYNITTGLYPFEGDNIYKLFENIGKGSYAIPGDCGPPLSDLLKGMLEYEPAKRFSIRQIRQHSWFRKKHPPAEAPVPIPPSPDTKDRWRSMTVVPYLEDLHGADEDEDLFDIEDDIIYTQDFTVPGQVPEEEASHNGQRRGLPKAVCMNGTEAAQLSTKSRAEGRAPNPARKACSASSKIRRLSACKQQ [D141M] has an STK11 functional score of 1.22 ± 0.14.
In the case of MEVVDPQQLGMFTEGELMSVGMDTFIHRIDSTEVIYQPRRKRAKLIGKYLMGDLLGEGSYGKVKEVLDSETLCRRAVKILKKKKLRRIPNGEANVKKEIQLLRRLRHKNVIQLVDVLYNEEKQKMYMVMEYCVCGMQEMLGSVPEKRFPVCQAHGYFCQLIDGLEYLHSQGIVHKDIKPGNLLLTTGGTLKISDLGVAEALHPFAADDTCRTSQGSPAFQPPEIANGLDTFSGFKVDIWSAGVTLYNITTGLYPFEGDNIYKLFENIGKGSYAIPGDCGPPLSDLLKGMLEYEPAKRFSIRQIRQHSWFRKKHPPAEAPVPIPPSPDTKDRWRSMTVVPYLEDLHGADEDEDLFDIEDDIIYTQDFTVPGQVPEEEASHNGQRRGLPKAVCMNGTEAAQLSTKSRAEGRAPNPARKACSASSKIRRLSACKQQ [D141G], the STK11 functional score is reported as 1.2 ± 0.36.
With MEVVDPQQLGMFTEGELMSVGMDTFIHRIDSTEVIYQPRRKRAKLIGKYLMGDLLGEGSYGKVKEVLDSETLCRRAVKILKKKKLRRIPNGEANVKKEIQLLRRLRHKNVIQLVDVLYNEEKQKMYMVMEYCVCGMQEMLVSVPEKRFPVCQAHGYFCQLIDGLEYLHSQGIVHKDIKPGNLLLTTGGTLKISDLGVAEALHPFAADDTCRTSQGSPAFQPPEIANGLDTFSGFKVDIWSAGVTLYNITTGLYPFEGDNIYKLFENIGKGSYAIPGDCGPPLSDLLKGMLEYEPAKRFSIRQIRQHSWFRKKHPPAEAPVPIPPSPDTKDRWRSMTVVPYLEDLHGADEDEDLFDIEDDIIYTQDFTVPGQVPEEEASHNGQRRGLPKAVCMNGTEAAQLSTKSRAEGRAPNPARKACSASSKIRRLSACKQQ [D141V] the STK11 functional score was 1.18 ± 0.36.
Work on MEVVDPQQLGMFTEGELMSVGMDTFIHRIDSTEVIYQPRRKRAKLIGKYLMGDLLGEGSYGKVKEVLDSETLCRRAVKILKKKKLRRIPNGEANVKKEIQLLRRLRHKNVIQLVDVLYNEEKQKMYMVMEYCVCGMQEMLASVPEKRFPVCQAHGYFCQLIDGLEYLHSQGIVHKDIKPGNLLLTTGGTLKISDLGVAEALHPFAADDTCRTSQGSPAFQPPEIANGLDTFSGFKVDIWSAGVTLYNITTGLYPFEGDNIYKLFENIGKGSYAIPGDCGPPLSDLLKGMLEYEPAKRFSIRQIRQHSWFRKKHPPAEAPVPIPPSPDTKDRWRSMTVVPYLEDLHGADEDEDLFDIEDDIIYTQDFTVPGQVPEEEASHNGQRRGLPKAVCMNGTEAAQLSTKSRAEGRAPNPARKACSASSKIRRLSACKQQ [D141A] yielded an STK11 functional score of 1.01 ± 0.15.
With MEVVDPQQLGMFTEGELMSVGMDTFIHRIDSTEVIYQPRRKRAKLIGKYLMGDLLGEGSYGKVKEVLDSETLCRRAVKILKKKKLRRIPNGEANVKKEIQLLRRLRHKNVIQLVDVLYNEEKQKMYMVMEYCVCGMQEMLLSVPEKRFPVCQAHGYFCQLIDGLEYLHSQGIVHKDIKPGNLLLTTGGTLKISDLGVAEALHPFAADDTCRTSQGSPAFQPPEIANGLDTFSGFKVDIWSAGVTLYNITTGLYPFEGDNIYKLFENIGKGSYAIPGDCGPPLSDLLKGMLEYEPAKRFSIRQIRQHSWFRKKHPPAEAPVPIPPSPDTKDRWRSMTVVPYLEDLHGADEDEDLFDIEDDIIYTQDFTVPGQVPEEEASHNGQRRGLPKAVCMNGTEAAQLSTKSRAEGRAPNPARKACSASSKIRRLSACKQQ [D141L] the STK11 functional score was 1.63 ± 0.23.
Variant MEVVDPQQLGMFTEGELMSVGMDTFIHRIDSTEVIYQPRRKRAKLIGKYLMGDLLGEGSYGKVKEVLDSETLCRRAVKILKKKKLRRIPNGEANVKKEIQLLRRLRHKNVIQLVDVLYNEEKQKMYMVMEYCVCGMQEMLFSVPEKRFPVCQAHGYFCQLIDGLEYLHSQGIVHKDIKPGNLLLTTGGTLKISDLGVAEALHPFAADDTCRTSQGSPAFQPPEIANGLDTFSGFKVDIWSAGVTLYNITTGLYPFEGDNIYKLFENIGKGSYAIPGDCGPPLSDLLKGMLEYEPAKRFSIRQIRQHSWFRKKHPPAEAPVPIPPSPDTKDRWRSMTVVPYLEDLHGADEDEDLFDIEDDIIYTQDFTVPGQVPEEEASHNGQRRGLPKAVCMNGTEAAQLSTKSRAEGRAPNPARKACSASSKIRRLSACKQQ [D141F] has an STK11 functional score of 1.52 ± 0.12.
MEVVDPQQLGMFTEGELMSVGMDTFIHRIDSTEVIYQPRRKRAKLIGKYLMGDLLGEGSYGKVKEVLDSETLCRRAVKILKKKKLRRIPNGEANVKKEIQLLRRLRHKNVIQLVDVLYNEEKQKMYMVMEYCVCGMQEMLPSVPEKRFPVCQAHGYFCQLIDGLEYLHSQGIVHKDIKPGNLLLTTGGTLKISDLGVAEALHPFAADDTCRTSQGSPAFQPPEIANGLDTFSGFKVDIWSAGVTLYNITTGLYPFEGDNIYKLFENIGKGSYAIPGDCGPPLSDLLKGMLEYEPAKRFSIRQIRQHSWFRKKHPPAEAPVPIPPSPDTKDRWRSMTVVPYLEDLHGADEDEDLFDIEDDIIYTQDFTVPGQVPEEEASHNGQRRGLPKAVCMNGTEAAQLSTKSRAEGRAPNPARKACSASSKIRRLSACKQQ [D141P] gave an STK11 functional score of -0.241 ± 0.11.
Work on MEVVDPQQLGMFTEGELMSVGMDTFIHRIDSTEVIYQPRRKRAKLIGKYLMGDLLGEGSYGKVKEVLDSETLCRRAVKILKKKKLRRIPNGEANVKKEIQLLRRLRHKNVIQLVDVLYNEEKQKMYMVMEYCVCGMQEMLSSVPEKRFPVCQAHGYFCQLIDGLEYLHSQGIVHKDIKPGNLLLTTGGTLKISDLGVAEALHPFAADDTCRTSQGSPAFQPPEIANGLDTFSGFKVDIWSAGVTLYNITTGLYPFEGDNIYKLFENIGKGSYAIPGDCGPPLSDLLKGMLEYEPAKRFSIRQIRQHSWFRKKHPPAEAPVPIPPSPDTKDRWRSMTVVPYLEDLHGADEDEDLFDIEDDIIYTQDFTVPGQVPEEEASHNGQRRGLPKAVCMNGTEAAQLSTKSRAEGRAPNPARKACSASSKIRRLSACKQQ [D141S] yielded an STK11 functional score of 1.21 ± 0.081.
With MEVVDPQQLGMFTEGELMSVGMDTFIHRIDSTEVIYQPRRKRAKLIGKYLMGDLLGEGSYGKVKEVLDSETLCRRAVKILKKKKLRRIPNGEANVKKEIQLLRRLRHKNVIQLVDVLYNEEKQKMYMVMEYCVCGMQEMLTSVPEKRFPVCQAHGYFCQLIDGLEYLHSQGIVHKDIKPGNLLLTTGGTLKISDLGVAEALHPFAADDTCRTSQGSPAFQPPEIANGLDTFSGFKVDIWSAGVTLYNITTGLYPFEGDNIYKLFENIGKGSYAIPGDCGPPLSDLLKGMLEYEPAKRFSIRQIRQHSWFRKKHPPAEAPVPIPPSPDTKDRWRSMTVVPYLEDLHGADEDEDLFDIEDDIIYTQDFTVPGQVPEEEASHNGQRRGLPKAVCMNGTEAAQLSTKSRAEGRAPNPARKACSASSKIRRLSACKQQ [D141T] the STK11 functional score was 0.00893 ± 0.31.
